From patent publication US20200239579A1 (Genmab, published 2020) come the findings set out here.

Test [1] has as its target T1, PDLoneECDHisCtag (human, UniProt Q9NZQ7 19-238).
T1 construct: Expressed in HEK-293F cells; theoretical molecular weight 29 kDa; also called recombinant human PD-L1 ECD; human PD-L1 (BLI); not shown: C-terminal His-tag; C-tag
Kind of test: BLI cross-block, second antibody on PDLoneECDHisCtag held by immobilised 632; plain = non-blocking. The protocol: (§1) Antibody cross-block testing was performed using biolayer interferometry (BLI) on an Octet HTX instrument (ForteBio). Antibodies (20 μg/ml in 10 mM sodium acetate buffer pH 6.0 (ForteBio)) were immobilized on Amine-Reactive 2nd Generation (AR2G) biosensors (ForteBio) according to the instructions of the manufacturer. After a baseline (50 s) in Sample Diluent (ForteBio), biosensors containing immobilized antibodies were loaded for 500 s with PDLoneECDHisCtag (100 nM or 2.7 μg/ml), after which the association response of a second antibody (10 μg/ml) was followed for 500 s. Biosensors were regenerated by using 3 times 5 s alternating exposures to 10 mM glycine pH 2.5 and Sample Diluent. The experiment was repeated with a new set of second antibodies starting from the baseline step. Each biosensor was used 6 times. The experiment was performed at 30° C. using a shaker speed of 1000 rpm. Data was analyzed using Data Analysis Software v9.0.0.12 (ForteBio). The Y-axis was aligned to the association step and Savitzky-Golay filtering was applied. The average buffer response was subtracted from the association response of the second antibody in order to correct for the dissociation of PDLoneECDHisCtag from the immobilized antibody. The corrected association responses were plotted in a matrix format.

Test [2] addresses T1, PDLoneECDHisCtag. Put plainly: BLI cross-block, second antibody on PDLoneECDHisCtag held by immobilised 338; bold = blocking. On the procedure:
as §1

Test [3] has as its target T1, PDLoneECDHisCtag. Kind of test: BLI (Octet HTX); antibody on anti-human IgG Fc capture sensor, PDLoneECDHisCtag as analyte; 1:1 global fit. On the procedure: In a first set of experiments, affinities for recombinant-expressed human PD-L1 protein were determined using Bio-layer interferometry (BLI) on an Octet HTX instrument (ForteBio). Anti-Human IgG Fc Capture (AHC) biosensors (ForteBio) were loaded for 900 s with antibodies (1 μg/ml). […] The experiment was carried out while shaking at 1000 rpm at 30° C. Data was analyzed with Data Analysis Software v9.0.0.12 (ForteBio) using the 1:1 model and a global full fit with 1000 s association time and 200 or 1000 s dissociation time. Data traces were corrected by subtraction of a buffer reference, the Y-axis was aligned to the last 10 s of the baseline, and interstep correction as well as Savitzky-Golay filtering was applied. Data traces with a response <0.05 nm were excluded from analysis. As default, the fit using 1000 s dissociation time was used.
Background: Biolayer interferometry detects binding as a change in optical thickness at a sensor tip.

Test [4] addresses T1, PDLoneECDHisCtag. Put plainly: BLI cross-block, second antibody on PDLoneECDHisCtag held by immobilised 511-LC33S; bold = blocking. The protocol:
as §1

Test [5] has as its target T1, PDLoneECDHisCtag. Kind of test: BLI cross-block, second antibody on PDLoneECDHisCtag held by immobilised 547; bold = blocking. The protocol:
as §1

The target of test [6] is T2, cynomolgus PD-L1/137-H1 protein (Acro Biosystems, cat. No. PD1-052H4-100) (cynomolgus, UniProt G7PSE7 19-239).
T2 construct: also called cynomolgus PD-L1 (BLI)
Put plainly: BLI (Octet HTX), average of 3 experiments; antibody on AHC sensor, cynomolgus PD-L1 protein (Acro Biosystems) as analyte.

Test [7] addresses T1, PDLoneECDHisCtag. Kind of test: BLI cross-block, second antibody on PDLoneECDHisCtag held by immobilised MPDL; bold = blocking. The protocol:
as §1

Test [8] deals with T1, PDLoneECDHisCtag. Put plainly: BLI cross-block, second antibody on PDLoneECDHisCtag held by immobilised 421-LC91S; bold = blocking. On the procedure:
as §1

The target of test [9] is T3, cynomolgus monkey PD-L1 (full length, on CHO cells) (cynomolgus monkey (Macaca fascicularis), UniProt G7PSE7 19-290).
T3 construct: whole, on cells; also called PDL1 Mf; cynomolgus PD-L1
Put plainly: flow cytometry on CHO cells transfected with cynomolgus PD-L1, PE anti-human IgG secondary, MFI (PE). On the procedure:
(§2) Cells (3-5×10⁴ cells/well) were incubated in polystyrene 96-well round-bottom plates (Greiner bio-one, cat. no. 650101) with serial dilutions of antibodies (range 0.0001 to 10 μg/mL in 5-fold dilution steps) in 50 μL PBS/0.1% BSA/0.02% azide (staining buffer) at 4° C. for 30 min.
(§3) After washing twice in staining buffer, cells were incubated in 50 μL secondary antibody at 4° C. for 30 min. As a secondary antibody, R-Phycoerythrin (PE)-conjugated goat-anti-human IgG F(ab′)₂ (Cat. no. 109-116-098, Jackson ImmunoResearch Laboratories, Inc., West Grove, Pa.) diluted 1:500 in staining buffer, was used for all experiments. Next, cells were washed twice in staining buffer, re-suspended in 20 μL staining buffer and analyzed on an iQue screener (Intellicyt Corporation, USA). Binding curves were analyzed using non-linear regression (sigmoidal dose-response with variable slope) using GraphPad Prism V75.04 software (GraphPad Software, San Diego, Calif., USA).
Binding to CHO cells expressing cynomolgus PD-L1 was determined by flow cytometry using a method as described above.
A general note: Flow cytometry measures light scatter and fluorescence of single cells or particles in a stream.

In test [10] the target is T4, human PD-L1 (full length, on cells) (human, UniProt Q9NZQ7 19-290).
T4 construct: The entry holds the signal peptide; also called CD274; B7H1
Put plainly: flow cytometry on PC3 cells, PE anti-human IgG secondary, MFI (PE). The protocol:
as §2, §3

The target of test [11] is T1, PDLoneECDHisCtag. Put plainly: BLI cross-block, second antibody on PDLoneECDHisCtag held by immobilised 632; bold = blocking. The protocol:
as §1

In test [12] the target is T4, human PD-L1 (full length, on cells). Kind of test: cell-based or functional assay.
For test [13] the target is unchanged. Put plainly: cell-based or functional assay. This is another data set of the same source.

By Kd is commonly meant the free concentration of one partner at which half of the binding sites on the other are occupied at equilibrium, for simple one-to-one binding. The term koff denotes the rate constant with which the complex falls apart. A word on the kon: it is the rate constant with which the complex forms. In general, EC50 (read off the curve) refers to the concentration at which the effect is half-maximal.

T4 sequence (Q9NZQ7 19-290 limits assumed): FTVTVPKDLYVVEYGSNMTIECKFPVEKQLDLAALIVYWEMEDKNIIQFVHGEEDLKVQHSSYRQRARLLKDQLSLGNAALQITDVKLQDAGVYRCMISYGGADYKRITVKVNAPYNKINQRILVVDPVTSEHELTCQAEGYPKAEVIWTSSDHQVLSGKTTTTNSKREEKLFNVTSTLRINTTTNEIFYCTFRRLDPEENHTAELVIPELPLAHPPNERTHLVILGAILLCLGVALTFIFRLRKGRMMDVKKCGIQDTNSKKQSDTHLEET
T1 sequence (Q9NZQ7 19-238, form in doubt): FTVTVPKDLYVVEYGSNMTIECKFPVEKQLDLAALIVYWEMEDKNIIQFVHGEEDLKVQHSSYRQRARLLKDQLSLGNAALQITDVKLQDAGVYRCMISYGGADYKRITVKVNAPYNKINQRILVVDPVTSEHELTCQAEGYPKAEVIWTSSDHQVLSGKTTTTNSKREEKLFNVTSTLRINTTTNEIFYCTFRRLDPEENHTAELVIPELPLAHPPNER
T2 sequence (G7PSE7 entry or part of it): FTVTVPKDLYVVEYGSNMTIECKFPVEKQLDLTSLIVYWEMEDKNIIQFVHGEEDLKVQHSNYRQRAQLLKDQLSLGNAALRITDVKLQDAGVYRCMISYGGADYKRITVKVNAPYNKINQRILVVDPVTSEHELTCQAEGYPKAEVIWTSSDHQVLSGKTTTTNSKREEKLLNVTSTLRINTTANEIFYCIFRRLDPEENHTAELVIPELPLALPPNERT
T3 sequence (G7PSE7 entry or part of it): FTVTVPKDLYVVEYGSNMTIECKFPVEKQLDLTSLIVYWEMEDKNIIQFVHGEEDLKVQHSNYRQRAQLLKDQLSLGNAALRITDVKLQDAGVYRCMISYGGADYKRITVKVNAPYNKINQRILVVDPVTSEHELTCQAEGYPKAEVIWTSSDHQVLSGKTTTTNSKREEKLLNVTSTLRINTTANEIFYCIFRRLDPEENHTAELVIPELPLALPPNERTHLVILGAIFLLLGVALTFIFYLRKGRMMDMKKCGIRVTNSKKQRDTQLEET

B1: IgG1-338-FEAR (antibody, V domains shown)
VH: EVQVVESGGGLVQPGGSLRLSCAASGFTFSRFWMSWVRQAPGKGLEWVANIKQDGGEKYYVDSVKGRFTISRDNAKNSLYLQMNSLRGEDTAVYYCARDDNWNGHFDYWGQGTLVTVSS
VL: DIQMTQSPSTLSASVGDRVTITCRASQSISSWLAWYQQKPGKAPNLLIYKASSLESGVPSRFSGSGSGTEFTLTISSLQPDDFATYYCQQYYGSYITFGQGTRLEIKR
As to B1, the “association response of the second antibody” value (from here on “association response”) in the test with PDLoneECDHisCtag [1] was 0.6 nm; with PDLoneECDHisCtag [2], 0 nm; in the test with PDLoneECDHisCtag [4] it was 0 nm; with PDLoneECDHisCtag [5], 0 nm; in the test with PDLoneECDHisCtag [7], 0 nm; in the test with PDLoneECDHisCtag [8] it was -0.1 nm. Besides, the Kd is 0.088 nM in the test with PDLoneECDHisCtag [3] and 0.73 nM in test [6]. The results for the koff (with PDLoneECDHisCtag [3]; in test [6]) were 6.4e-05 s⁻¹ and 0.00028 s⁻¹, respectively. The figures for the kon (with PDLoneECDHisCtag [3]; in test [6]) were 730000 M⁻¹ s⁻¹ and 390000 M⁻¹ s⁻¹, respectively.

B2: IgG1-511-LC33S-FEAR (antibody, V domains shown)
VH: QVQLVQSGSELKKPGASVMVSCKASGYTFTSYVMNWVRQAPGQGLEWMGWINSYTGNPTSAQGFTGRFVFSFDTSVNTAYLQISSLKAEDTAVYYCARGYCTSTSCYLDYWGQGTLVTVSS
VL: SYELTQPPSVSVSPGHTARITCSGDALPKKYASWFQQKSGQAPVLVIYEDSKRPSGIPERFSGSTSGTMATLTISGAQVEDETDYYCYSADTSGTHRVFGGGTKLTVLG
In the case of B2, the “EC50 (read off the curve)” value in test [9] was roughly 0.08 µg/mL; in test [10], roughly 0.03 µg/mL; in test [12], roughly 0.05 µg/mL. Further, the “association response” value with PDLoneECDHisCtag [2], with PDLoneECDHisCtag [11], with PDLoneECDHisCtag [4] and in the test with PDLoneECDHisCtag [7] was 0 nm in each case. Binding in test [6] was put at a Kd of 12 nM. The molecule also showed a koff in [6] of 0.0052 s⁻¹. The kon in test [6] turned out to be 450000 M⁻¹ s⁻¹.

B3: IgG1-547-FEAR (antibody, V domains shown)
VH: EVQLLEPGGGLVQPGGSLRLSCEASGSTFSTYAMSWVRQAPGKGLEWVSGFSGSGGFTFYADSVRGRFTISRDSSKNTLFLQMSSLRAEDTAVYYCAIPARGYNYGSFQHWGQGTLVTVSS
VL: SYVLTQPPSVSVAPGQTARITCGGNNIGSKSVHWYQQKPGQAPVLVVYDDNDRPSGLPERFSGSNSGNTATLTISRVEAGDEADYYCQVWDSSSDHVVFGGGTKLTVLG
For B3, the “EC50 (read off the curve)” value in test [13] was roughly 0.02 µg/mL. In addition, the “association response” value in the test with PDLoneECDHisCtag [1] amounted to 0.6 nm; with PDLoneECDHisCtag [2], 0 nm; in the test with PDLoneECDHisCtag [5], 0 nm; with PDLoneECDHisCtag [7], 0 nm; with PDLoneECDHisCtag [8], 0 nm. Also, the Kd turned out to be 0.029 nM in the test with PDLoneECDHisCtag [3] and 0.27 nM in test [6]. For the same molecule, the koff with PDLoneECDHisCtag [3] is 3.6e-05 s⁻¹; in test [6], 0.00012 s⁻¹. The kon in the test with PDLoneECDHisCtag [3] was determined as 1.2e+06 M⁻¹ s⁻¹; in test [6], 440000 M⁻¹ s⁻¹.
